{"source": "the nanobody polyreactivity screen of Harvey et al. (2022)", "assay": "yeast display, Sf9 membrane polyspecificity reagent, FACS + sequencing; frameworks hold sequencing errors", "in_short": "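A synthetic nanobody library was expressed on Saccharomyces cerevisiae BJ5465 by galactose induction for 36–48 hours. The library was stained for 1 hour at 4 °C with 10% biotinylated, detergent-solubilized Sf9 membrane reagent and enriched with streptavidin microbeads before FACS. Low and high (top ~1%) gates were set on anti-HA fluorescence for expression and streptavidin fluorescence for reagent binding, and each polyreactivity label reflects the gate of origin.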", "data": [{"sequence": "QVQLVESGGGLVQAGGSLRLSCAASGRTSVWYTMGWYRQAPGKEREFVASITGSGTCYADSVKGRFTISRDNAKNTVYLQMNSLKPEDTAVYYCAAGGKYYTFGFRGGTYDYWGQGTQVTVSS", "values": [{"measurement": "polyreactivity (PSR sort gate)", "value": "high polyreactivity"}]}, {"sequence": "QVQLVESGGGLVQAGGSLRLSCAASGRTFRYYTMGWYRQAPGKEREFVAAISSTGGTYYADSVKGRFTISRDNAKNTVYLQMNSQKPEDTAVYYCAATVIQVVVNVQLYDYDYWGQGTEVTVSS", "values": [{"measurement": "polyreactivity (PSR sort gate)", "value": "low polyreactivity"}]}, {"sequence": "QVQLVESVGGLVQAGGTLRLSCAATEGTIRSNAMGWYRQAPGKESELVAAISRGGSTYYADSVKGRFTISRDNAKNTVYLQMNSLKPEDTAVYYCNVAYYRSGHDNDYWGQGTQVTVSS", "values": [{"measurement": "polyreactivity (PSR sort gate)", "value": "high polyreactivity"}]}, {"sequence": "QVQLVESGGGLVQAGGSLRLSCAASGNTFGIYAMGWYRQAPGKERELVAAISSGTSTNYADSVKGRFTISRDNAKNTVYLQMNSLKPEDTAVYYCNADDQYQDVREDYWGQGTQVTVSS", "values": [{"measurement": "polyreactivity (PSR sort gate)", "value": "low polyreactivity"}]}, {"sequence": "QVQLVESGGGLVQAGGSLRLSCAASGYIFYQYAMGWDRQAPGKERELVAGINWRGGSTYADSVKGRFTISRDNAKITVYLQMNSLKPEDTEVYYCNANQYRQDVFRRPSYYAYYYWGQGTQVTVSS", "values": [{"measurement": "polyreactivity (PSR sort gate)", "value": "high polyreactivity"}]}, {"sequence": "QVQLVESGGGLVQAGGSLRLSCAASGNTFVFYTMGWSRQAPGKERELVAAITSSGVRTSYADSVKGRFSISRDNAKNTVYLQMNSLKPEDTAVYYCAASLRASPSFGYWGQGTQVTVSS", "values": [{"measurement": "polyreactivity (PSR sort gate)", "value": "high polyreactivity"}]}, {"sequence": "QVHLVESGGGLVQAGGSLRLSCAASGLIFLYYAMGWYRQAPGKERELVAAISSGGSTYYADSVKGRFTISRDNAKNTVFLQMNSLTPEDTAVYYCAAADSYSSLEYWGQGTQVTVSS", "values": [{"measurement": "polyreactivity (PSR sort gate)", "value": "high polyreactivity"}]}, {"sequence": "QVQLVESGGGLVQAGGSLRLSCAASGRIFPSYAMGWYRQAPGKERELVAAITSSDSTYYADSVKGRFTISRDNAKNTVYLQMNSLKPEDTAVYYCAAAYSYSGWWWFGYWGQGTQVTVSS", "values": [{"measurement": "polyreactivity (PSR sort gate)", "value": "high polyreactivity"}]}, {"sequence": "QVQLVESGGGLVQAGGRLRLSCAASGGIFGSYAMGWYRQAPGKERELVADITQSGGRTRYADSVKGRFTISRDNAKNTVYLQMNSLKPEDTAVYYCNAQDVDSGDDYDYWGQGTQVTVSS", "values": [{"measurement": "polyreactivity (PSR sort gate)", "value": "low polyreactivity"}]}, {"sequence": "QVQLVESGGGLVQAGGSLRLSCAASGRTFFMYAMGRYRQAPGKERELVAAISWGGVSTYYADSVKGRFTISRDNAKNTVYLQMNSLKPEDTAVYYCNAEYYYPRGRYWYDYWGQGTQVTVSS", "values": [{"measurement": "polyreactivity (PSR sort gate)", "value": "high polyreactivity"}]}, {"sequence": "QVQLVESGGGLVQAGGSLRLSCAASGFTFSRYAMGWYIQAPGKERELVAAITRGGSTNYADSVKGRFTISRDNAKNTVYLQMNSLKPEDTAVYYCAVRIRYSTNAYYYWGQGTQVTVSS", "values": [{"measurement": "polyreactivity (PSR sort gate)", "value": "high polyreactivity"}]}, {"sequence": "QVQLVESGGGLVQAGGSLRLSCAASGFTLTRNAMGWYRPAPGKERELVAAISWSGGTTYYADSVKGRFTISRDNAKNTVYLQMNSLKPEDTAVYYCAADSVKYGGDYWGQGTQVTVSS", "values": [{"measurement": "polyreactivity (PSR sort gate)", "value": "high polyreactivity"}]}, {"sequence": "RVQLQESGGGLVQAGGSLRLSCAASGNIFDTDIMGWYRQAPGKESELVASITDGGSTTYADSEKGRFTISRDNAKNTVYLQMNSLKPEDTAVYYCAADQGRYGIIGWDDYWGQGTQVTVSS", "values": [{"measurement": "polyreactivity (PSR sort gate)", "value": "low polyreactivity"}]}, {"sequence": "QVQLEESGVGLVQAGGSLRLRCAASGSTVTDNTKGWYRQAPGKERELVAPISGVGSTYYSESVKGRFTISRDNAKNTVYFQMHSLKPEDTAVYYCNVYWGPFYRSGDKYGYWGQGTQVTVSS", "values": [{"measurement": "polyreactivity (PSR sort gate)", "value": "low polyreactivity"}]}, {"sequence": "QVQLVESGGGLDQAGGCLRLSCAASGRIFKYNAMGWYRQAPGTERELVAAISWNGDSTYYADSVKGRFTISRDIAKYTVYLQMNRLKPEDTAVYYCAVTGDYDMEYWGQGTQVTVSS", "values": [{"measurement": "polyreactivity (PSR sort gate)", "value": "low polyreactivity"}]}, {"sequence": "QVQLVESGGGLVQGGGTLRLSCAASGSILSRNTMGWYRQAPGKEREFVADISKGDSTYYADSVKGRFTISRDNAKNTGYLQMNILKPVDTAVYYCAVDSWRRAMWYYGRYGYWGQGTEVTVSS", "values": [{"measurement": "polyreactivity (PSR sort gate)", "value": "low polyreactivity"}]}, {"sequence": "QVQLVESGGGLVQAGGSLRLSCAASGRIFRYNAMGWYRQAPGKERELVASINQRGGSTYYADSVKGRFTISRDNAKNTVYLQMNSLKPEDTAVYYCAKRFNSGYYYWGQGTQVTVSS", "values": [{"measurement": "polyreactivity (PSR sort gate)", "value": "high polyreactivity"}]}, {"sequence": "QVQLVESGGGLVQAGGSHRLSCAASGRTFRPYAMGWYRQAPGKERELVAAITGGTRKYYADSVKGRFTISRDNAKNSVYLQMNSLKPEVTAVYSCAKGDFFSKHDYRGQGTQVTVSS", "values": [{"measurement": "polyreactivity (PSR sort gate)", "value": "low polyreactivity"}]}, {"sequence": "QVQLVESRGGLVQAGGSLRLSCAASGYIFGDYAKGWYRQAPGKERELVAAITQTGGNTYYADSVKGRFTISRDNAKKTVYLQMNSLKPEDTAVYYCAAPALGNYFYGYDYWGQGTQVTVSS", "values": [{"measurement": "polyreactivity (PSR sort gate)", "value": "low polyreactivity"}]}, {"sequence": "QVQLVESGGGLVQAGGSLSLICAASGSTFSQYFMGLYRQAPGKDRELVAGISSRGTSTYYADSVKGRFTISRDNAQNTFYLQMNSLKPEDTAVFYCNRGKLYNTYDYWGQGTQVNVSS", "values": [{"measurement": "polyreactivity (PSR sort gate)", "value": "low polyreactivity"}]}, {"sequence": "QVQLVESGGGLVQAGGSLRLSCAASGFIFASYAMGWYRQAPWKERELVAAISYRGGTTYYADSVKGRFTISRDNAKNTVYLQMNSLKPEDTAVYYCAADSPENRYNDWGQGTQVTVSS", "values": [{"measurement": "polyreactivity (PSR sort gate)", "value": "high polyreactivity"}]}, {"sequence": "QVQLVQSWGGLVQAGGSLRLICAASGSIIAYNAMGWYRQAPGKEREMVAAITISGGSTYYADSVKGRFTISRDNAKNNVYLQMNSLKPEDTAVYYSAAAIPGARSRRSYGKYFYWGQGTQVTVSS", "values": [{"measurement": "polyreactivity (PSR sort gate)", "value": "low polyreactivity"}]}, {"sequence": "QVQLVESGGGLVQAGGSLRLSCAASGRIISRNAMGWYRQAPGKERELVAAISGSGSRTFYADSVKGRFTISRDNAKNTVYLQMNSLKPEDTAVYYCAADRSSYSRFYYWGQGTQVTVSS", "values": [{"measurement": "polyreactivity (PSR sort gate)", "value": "high polyreactivity"}]}, {"sequence": "QVQLVESGGGLVQAGGSLRLSCAASVFIFGTNAMGWYRQAPGKERELVASISSTGGSTYYADSVKGRLTISRDNAKNTVYLQMNSLIPEDNAVSFCASDHYPEYIRYVPGVDYWGQGTQVTVSS", "values": [{"measurement": "polyreactivity (PSR sort gate)", "value": "low polyreactivity"}]}, {"sequence": "QVQLVESGGGLVQAGGSLRLSCAASGSIFGGYAMGWYRQAPGKERELVARITDRGGSTDYADSVKGRFTISRDNAKNTVYLQMNSLTPEDTAVYYCAKRGDRYEKRPRDYWGQGTQVTVSS", "values": [{"measurement": "polyreactivity (PSR sort gate)", "value": "low polyreactivity"}]}, {"sequence": "QVQLVESGGGLVQAGGSLRLSCAASGFIFQPYAMGWYRQAPGKERELVAAITSRGGRTYYADSVKGRFTISRDNAMNTVYLLMNSLKPEDTAVYYCAKRYAVYVTHFSRIRWYNYWGQGTQVTVSS", "values": [{"measurement": "polyreactivity (PSR sort gate)", "value": "low polyreactivity"}]}, {"sequence": "QVQLVESGGGLVQAGGSLRLSCAASGSTFYAYTKGWSRQAPGKERELVADISSGGGTYYADSVKGRFTISRDNAKNTVYLQMNSLKPEDTAVYYCNADWRVGRQLSKAKIPYDYWGQGTQVTVSS", "values": [{"measurement": "polyreactivity (PSR sort gate)", "value": "low polyreactivity"}]}, {"sequence": "QVQLVESGGGLVQAGGSLRLSCAASGRIFTNYAMGWYRQAPGKERELVAAINWDGGSTYYADSVKGRFTISRDNAKNTVYLQMNSLKPVDTAVYYCAAQGGLSEYDYWGQGTQVTVSS", "values": [{"measurement": "polyreactivity (PSR sort gate)", "value": "low polyreactivity"}]}, {"sequence": "QVQLVESGGGLVQAGGSLRLSCASSGLIFVVYAMGWYRQAPGKERELVAAISTSGDRTYYADSVKGRFTISRDNAKNTVYLLMNSLKPEDTAVYYCAAGRRKVPYCREYYYWGQVTQVTVSS", "values": [{"measurement": "polyreactivity (PSR sort gate)", "value": "high polyreactivity"}]}, {"sequence": "QVQLVESGGGLVQAGGSLLLSCAASGSILSKNAMGWYRQAPGKDRELVAAITWSGGSTYYADSVKGRFTISRDNAKNTVYLQMNSLKPEDTADYSCAADLDWSPQFGLPYDYWGQGTQVTVSS", "values": [{"measurement": "polyreactivity (PSR sort gate)", "value": "low polyreactivity"}]}, {"sequence": "QVQLGESGGGLVQAGGSLRLSCAASGSTLRNNAMGWYRQAPGKERELVASIRTRGGSTRYADSVKGRFTISRDNAKNTVYLQMNSLKPEDTAVYYCAAQYYGKGWQLDYWGQGSQVTVSS", "values": [{"measurement": "polyreactivity (PSR sort gate)", "value": "high polyreactivity"}]}, {"sequence": "QVQLVESGGGLVQAGGSLRLSCAASGSTFFTYTMGWYRQAPGKERELVATITTSGGSTYYADSVKGRFTISRDNAKNTVYLQMNSLKPEDTAVYYCAADWDPGYYVQYGYDYWGQGTQVTVSS", "values": [{"measurement": "polyreactivity (PSR sort gate)", "value": "low polyreactivity"}]}]}
